Biological target: T1, human CLDN6 (Claudin 6) (human, UniProt P56747 1-220)
T1 construct: whole, on cells; Target presented on NUGC-3 cells that express CLDN6; also called hCLDN6
T1 sequence (looked up): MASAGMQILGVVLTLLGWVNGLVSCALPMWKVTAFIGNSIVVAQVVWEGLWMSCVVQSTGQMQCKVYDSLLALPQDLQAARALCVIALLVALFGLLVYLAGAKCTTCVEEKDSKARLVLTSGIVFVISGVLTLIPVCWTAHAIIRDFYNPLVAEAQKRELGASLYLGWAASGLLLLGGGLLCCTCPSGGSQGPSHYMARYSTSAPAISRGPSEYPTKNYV
Experiment: flow cytometry on NUGC-3 cells expressing CLDN6, antibody 1 ng/mL to 25 µg/mL, PE anti-human IgG detection, gMFI
Procedure: The cells of human gastric cancer cell line NUGC-3 (JCRB cell bank) expressing CLDN6 were suspended with PBS (Wako, #045-29795) containing 5% FBS so as to have a concentration of 1×10⁶ cells/mL. The suspension was seeded (added) in the wells of a 96-well V-bottom microplate at a rate of 100 μL/well. After centrifugation, the supernatant was removed. AbM: antibody comprising a heavy chain, aCLDN6-VH—CH₁—CH₂—CH₃ and a light chain, aCLDN6-VL-CL, disclosed in International Publication No. WO2022/058298. Ab0, Ab1 and Ab2 were suspended with 5% FBS-containing PBS such that the concentrations fall in the range of 1 ng/mL to 25 μg/mL (12 dilution series were prepared by serial dilution at a 2.5-fold dilution rate from 25 μg/mL to 1 ng/mL). The suspensions were added at a rate of 100 μL/well and allowed to stand still at 4° C. for one hour. […] A histogram of PE (phycoerythrin) fluorescence intensity of viable cell fractions was prepared and geometric mean fluorescence intensity (gMFI) was calculated. gMFI values were plotted to make a graph by GraphPad Prism (company: GraphPad Software). […]

B1: humanized anti-CLDN6 antibody Ab1 (antibody, human IgG1, kappa, V domains shown)
VH: QVQLVESGGGVVQPGGSLRLSCKASGYSFTGYTMNWVRQAPGKGLEWVGLINPYNGGTIYNQKFKGRFTLSVDKSKSTAYLQMNSLRAEDTAVYYCARDYGFVLDYWGRGTLVTVSS
VL: DIQLTQSPSSLSASVGDRVTITCSASSSVSYLHWFQQKPGKAPKLLVYSTSNLPSGVPSRFSGSGSGTDYTLTISSLQPEDFATYYCQQRSIYPPWTFGQGTKLEIKR
notes: Humanized from mouse anti-CLDN6 antibody GT512muMAB 64A or 61D (WO 2011/057788), expressed in ExpiCHO-S cells; Tested as the naked antibody
  binding result: binds

B2: humanized anti-CLDN6 antibody Ab2 (antibody, human IgG1, kappa, V domains shown)
VH: QVQLVESGGGVVQPGGSLRLSCKASGYSFTGYTMNWVRQAPGKGLEWVGLINPYNGGTIYNQKFKGRFTLSVDKSKSTAYLQMNSLRAEDTAVYYCARDYGYVLDYWGRGTLVTVSS
VL: DIQLTQSPSSLSASVGDRVTITCSASSSVSYLHWFQQKPGKAPKLLVYSTSNLPSGVPSRFSGSGSGTDYTLTISSLQPEDFATYYCQQRSIYPPWTFGQGTKLEIKR
notes: Tested as the naked antibody
  binding result: binds
